Data reported in article doi:10.1101/2021.10.15.464611.

Molecular target: anti-PfTRAP monoclonal antibody AKBR-7 (mouse)
Test: BLI

Kd: 0.15 nM
B1: Plasmodium falciparum TRAP ectodomain (PfTRAP) (domain or fragment)
chain: RDVQNNIVDEIKYSEEVCNDQVDLYLLMDCSGSIRRHNWVNHAVPLAMKLIQQLNLNDNAIHLYVNVFSNNAKEIIRLHSDASKNKEKALIIIRSLLSTNLPYGRTNLTDALLQVRKHLNDRINRENANQLVVILTDGIPDSIQDSLKESRKLSDRGVKIAVFGIGQGINVAFNRFLVGCHPSDGKCNLYADSAWENVKNVIGPFMKAVCVEVEKTASCGVWDEWSPCSVTCGKGTRSRKREILHEGCTSEIQEQCEEERCPPKWEPLDVPDEPEDDQPRPRGDNSSVQKPEENIIDNNPQEPSPNPEEGKDENPNGFDLDENPENPPNPDIPEQKPNIPEDSEKEVPSDVPKNPEDDREENFDIPKKPENKHDNQNNLPNDKSDRNIPYSPLPPKVLDNERKQSDPQSQDNNGNRHVPNSEDRETRPHGRNNENRSYNRKYNDTPKHPEREEHEKPDNNKKKGESDNKYK
